According to publication PMC11018872, “Dynamic inter-domain transformations mediate the allosteric regulation of human 5, 10-methylenetetrahydrofolate reductase” (Nature Communications, 2024):

Target: the molecule itself
Assay: negative stain EM; TEV-cleaved purified MTHFRFL, 50 nM in 20 mM HEPES pH 7.5, 200 mM NaCl with 5 mM SAM or 2.6 mM SAH; 2D classes

B1: full-length human 5,10-methylenetetrahydrofolate reductase (MTHFRFL aa 1-656) (enzyme)
chain: not shown
modifications: multiply phosphorylated during its recombinant expression (N-terminal Ser/Thr-rich region; sites not given)
notes: human 5,10-methylenetetrahydrofolate reductase (MTHFR), full-length, aa 1-656, wild type; Homodimer; also called MTHFRFL^SAM; MTHFRFL^(SAH (symm)); source: baculovirus/insect cell system, SF9 cells, purified (Ni-NTA, Superdex 200 size exclusion); flag/His10 tag removed with TEV protease; not shown: FLAG, C-terminal, cleaved; His10, C-terminal, cleaved
- binding result: binds
